Assay results published in US7910550B2, “Human kunitz-type inhibitor with enhanced antifibrinolytic activity” (STC.UNM, priority 2004, dated 2011).

Assays:
Format in all cases: cell-based, human
HT-1080 cells [1] = assay: FACS analysis of apoptosis with annexin V/propidium iodide; settings: 1 μM, 48 hours; for cells in a late apoptotic stage (annexin V and PI positive): vehicle 4%; for early apoptotic cells (annexin V-FITC positive): vehicle 16%
Experimental: (§1) All cell lines were maintained in Dulbecco's minimal essential medium (DMEM), supplemented with heat-inactivated 10% fetal bovine serum and penicillin-streptomycin. The cells were cultured either in 6- or 12-well plates at 37° C. in a humidified atmosphere containing 6% CO2. At confluence, the cells were treated with fresh medium containing either wild-type TFPI-2, R24K KD1, or R24Q KD1. Cells were treated in duplicate with purified proteins at concentrations ranging from 0.5 μM to 10 μM for different time intervals. One set were also treated with PBS to serve as a control. The Limulus Amebocyte Lysate (LAL) assay was performed on each protein preparation to determine the presence of any endotoxin/LPS, and only trace amounts of endotoxin (<0.5 ng/L) were detected in each protein preparation.
To assess the degree of apoptosis between the various treatments, cells were grown to confluence in 6 well plates and treated with either proteins or vehicle as described earlier. For annexin V staining, approximately 1.2×10^6 cells were harvested with PBS containing 1 mM EDTA and washed twice gently with cold PBS. The cells were suspended in 100 μl of cold binding buffer (10 mM Hepes (pH 7.4), 140 mM NaCl, 2.5 mM CaCl2), and subsequently incubated at room temperature in the dark for 25 minutes with 5 μl of FITC-conjugated annexin V and 10 μl of propidium iodide (50 μg/ml stock). The cells were then washed in 500 μl of binding buffer to remove unbound reagents, centrifuged at 900×g for 5 minutes, and resuspended in 1 ml of cold binding buffer. The labeled cells were then analyzed using a FACSCALIBUR flow cytometer (Becton Dickinson, San Jose, Calif.) and the data analyzed using […] software.

HT-1080 cells [2] = assay: Western blot of cell extracts (Bax, Bcl-2, cleaved caspase-9, cleaved caspase-3); settings: 1 μM, 48 hours; for activated caspase 9 and activated caspase 3 (immunoblot): vs vehicle-treated cells
Experimental: Cell extracts were analyzed for the pro-apoptotic Bax, the anti-apoptotic Bcl-2, cleaved caspase-9 and cleaved caspase-3 by immunoblotting techniques. Approximately, 1×10^6 HT-1080 cells were grown to confluence in 6-well plates and treated with recombinant proteins and vehicle as described above. Both floating and adherent cells were harvested and washed twice with cold PBS. The cells were lysed by sonication in 500 μl of lysis buffer containing of 125 mM Tris-HCl (pH 6.8), 2% SDS, 10% glycerol, 50 mM sodium phosphate, 1 mM PMSF and protease inhibitor cocktail. The lysate was kept on ice for about 10 minutes, centrifuged for 15 minutes at 10,000×g at 4° C., and the supernatant recovered. The supernatants were boiled for 3 min and 50 μg of lysate protein subjected to SDS-PAGE in 4-20% polyacrylamide gradient gels. […] The nitrocellulose membranes were then probed with specific antibodies dissolved in fresh blocking buffer, and immunoreactive proteins were identified using HRP-conjugated secondary antibodies and a chemiluminescent reagent system essentially as described in Kempiah et al., Mol. Cancer, 6:20, 2007. Separate blots were treated with mouse monoclonal anti-α-tubulin antibody in order to verify equal loading of lysate proteins onto the gel.

HT-1080 cells [3] = assay: DNA fragmentation analysis by agarose gel electrophoresis; settings: 48 hours
Experimental: Cells were grown to confluence in 6-well plates and treated with either wild-type TFPI-2 or R24K KD1 at the same concentrations described above. After incubation for either 24 or 48 hours at 37° C., the cells were harvested and washed twice with PBS. The DNA was then extracted using the DNEASY tissue kit (Qiagen, Valencia, Calif.) accordingly to the manufacturer's instructions. DNA extracts were electrophoresed in 1.8% agarose gels at 100 V for 45 minutes and visualized with ethidium bromide staining under UV illumination.

HT-1080 cells [4] = assay: Apoptosis detection by AO/EB staining; settings: 1 μM, 48 h; approximately 5% in vehicle-treated cells
Experimental: as §1
Cells were grown to confluence in two-chamber culture slides containing 2 ml medium. For AO/EB staining, the cultures were treated with recombinant proteins as described above. […] Cells were viewed within 30 minutes of staining and counted using a Zeiss axiocam epifluorescence microscope (Carl Zeiss, Inc., Thornwood, N.Y.) equipped with a triple cube filter [DAPI/FITC/RITC]. […] Experiments were performed in triplicate, and a minimum of 100 total live and apoptotic cells were counted in each treatment.

B1: R24K KD1: KD1 with lysine in place of arginine at position 24 (SEQ ID NO:3) (protein)
chain: DAAQEPTGNNAEICLLPLDYGPCKALLLRYYYDRYTQSCRQFLYGGCEGNANNFYTWEACDDACWRIEKVPKV
modifications: mutated active domain
cells in a late apoptotic stage (annexin V and PI positive) (HT-1080 cells [1]): ~58% | early apoptotic cells (annexin V-FITC positive) (HT-1080 cells [1]): 41% | Bax and Bcl-2 protein expression (immunoblot) (HT-1080 cells [2]): increased expression of the pro-apoptotic protein, Bax, and decreased expression of the anti-apoptotic protein, Bcl-2 | activated caspase 9 and activated caspase 3 (immunoblot) (HT-1080 cells [2]): activation of caspase-9 and caspase-3 | DNA fragmentation (HT-1080 cells [3]): ladder pattern typically associated with DNA fragmentation and apoptosis

B2: TFPI-2: Human tissue factor pathway inhibitor-2, 213 amino acid polypeptide with three tandem Kunitz-type domains (SEQ ID NO:1) (protein, listed as Homo sapiens)
chain: DAAQEPTGNNAEICLLPLDYGPCRALLLRYYYDRYTQSCRQFLYGGCEGNANNFYTWEACDDACWRIEKVPKVCRLQVSVDDQCEGSTEKYFFNLSSMTCEKFFSGGCHRNRIENRFPDEATCMGFCAPKKIPSFCYSPKDEGLCSANVTRYYFNPRYRTCDAFTYTGCGGNDNNFVSREDCKRACAKALKKKKKMPKLRFASRIRKIRKKQF
apoptotic cells (AO/EB staining) (HT-1080 cells [4]): 39% | cells in a late apoptotic stage (annexin V and PI positive) (HT-1080 cells [1]): ~43% | early apoptotic cells (annexin V-FITC positive) (HT-1080 cells [1]): 55% | Bax and Bcl-2 protein expression (immunoblot) (HT-1080 cells [2]): increased expression of the pro-apoptotic protein, Bax, and decreased expression of the anti-apoptotic protein, Bcl-2 | activated caspase 9 and activated caspase 3 (immunoblot) (HT-1080 cells [2]): activation of caspase-9 and caspase-3 | DNA fragmentation (HT-1080 cells [3]): ladder pattern typically associated with DNA fragmentation and apoptosis
